According to US20210180049A1 (CHUGAI SEIYAKU KABUSHIKI KAISHA, priority 2013, published 2021):

Format: binding
Settings: Biacore T200, 15° C.
Protocol: Kynurenine-dependent antibody 6RNMSC1-2_F02 obtained from the library was assessed for its binding to kynurenine and derivatives thereof using Biacore T200 (GE Healthcare). The following […] molecules were assessed as derivatives: the kynurenine isomer D-kynurenine and the derivatives 3-hydroxy-DL-kynurenine, 4-(4-methylphenyl)-4-oxobutyric acid, R00447436-000-001, RO0635389-000-001, R00438566-001-001, and RO0635390-000-001. The chemical structure of each compound is shown below.
An appropriate amount of protein A (Invitrogen) was immobilized onto Sensor chip CM4 (GE Healthcare) by the amine coupling method. The antibody of interest was captured thereon, and the antigen kynurenine and derivatives thereof were allowed to interact. The running buffer used was 50 mmol/L Tris-HCl, 150 mmol/L NaCl, 0.02% (w/v) Tween 20, 5% DMSO, pH 7.6. All measurements were carried out at 15° C. The antigens were diluted with the running buffer.
Then, the running buffer was run at a flow rate of 30 μL/min for 60 seconds to observe the dissociation of antigens from the antibody. Kinetic parameters, the association rate constant ka (1/Ms) and the dissociation rate constant kd (l/s), were calculated based on the sensorgrams obtained by the measurements. The dissociation constant KD (M) was calculated from these constants. Each parameter was calculated using Biacore T200 Evaluation Software (GE Healthcare).

B1: 6RNMSC1-2_F02: antibody binding hIL-6R in the presence of kynurenine; heavy chain SEQ ID NO: 32, light chain SEQ ID NO: 33 (antibody, listed as Homo sapiens, V domains shown)
VH: QVQLVQSGAEVKKPGSSVKVSCKASGGTFSSYAISWVRQAPGQGLEWMGGIIPIFGTANYAQKFQGRVTITADESTSTAYMELSSLRSEDTAVYYCARDAPVVARPRGAFDIWGQGTMVTVSS
VL: DIVMTQTPLSSPVTLGQPASISCRSSQSLVHSDGNTYLSWLQQRPGQPPRLLIHEISNRFSGVPDRFSGSGAGTNFTLKISRVEAEDVGVYYCMQATQFPRTFGQGTKVEIK
bind: binding to 3-hydroxy-DL-kynurenine | binding to RO0635389-000-001 | binding to RO0635390-000-001
